The text below walks through data of the DeepSol protein solubility set.

The data set in a line: soluble on expression in E. coli; label from the status in PepcDB or PDB records.
Regarding “MIKESTLHISFMAVRQTMRRVISRIVPPREVEDIVQETYVRICQVENKEAIKQPRSFLLKTAKNLAIDHLKRADIRLVDTVDNMAEFEHLVSADDAIYQQVATDKEFAQFCEAIRQLPIQCRKAFVLKKVYGYSQKEIAKKLAISESTVEKHIGLGVKRCTYFMMQLTKEERTETMKNSKKTHQVRRDL”, the “soluble on expression in E. coli” value is reported as “not soluble”.

For the sequence “MSLNPNDFKDELKSVALEKANVNLRLDGDISWSFFPWLGLGLEDIGVSIGSDPEILQFDRAEFGLAILPLLKQKIQVDKVNLVNLKASLNKNAQGQGNWQLDLPDSTPAASSSIPATTASTASSTSANDTVEKLKLPDIQLDELRIENAQVQYRDEQTKQLINATLNVQLNDVQWDKAWPMVMDIAVTQSDLQGKSPIKAKATLNANLAVFPEREALSLDSLVLSADVESELLPTSPISAKLSAANVDVDLPQENVLAEGLALSVLGVNVDAKIQAYQVLSEPQFSAVLTVGEFNPRYLMTRLNLPLPEMSDDTAMTKARANVTLEGSLDSITAQPISITIDDTNIEANAVVDLSPLRWDVSVAGKNLDLDRYLPTPVEKGKDGKVEAITDVDIAAKTESGDLIPIDLIRSLNGHVGMVFENLTAKKLKIDKIELDSTQSNGLVKISPLRAYLYKGSVSSKASLDVRGITPVFNISPAIDGVQIQPLLVDFMDMNKIAGATYLNGELKAKGNSVDDLMSSLQGDLLIDIKKGALVGTNLTKTVCEGIAAVRKEKIDEQQFGPDTPFETMRFPAHIVNGRVSTPGLKISSAGIQVTGDGVVSLPNSSLDYQANVGIAGSELDKACHVNEKVTKLAFPIVCKGKFSDDPAGLCRPDIKGFGKLFADLAEDELKLKVDAEKARLKEGHHHHHH”, the “soluble on expression in E. coli” value was “soluble”.

“EVQLLEQSGAEVKKPGSSVQVSCKASGGTFSMYGFNWVRQAPGHGLEWMGGIIPIFGTSNYAQKFRGRVTFTADQATSTAYMELTNLRSDDTAVYYCARDFGPDWEDGDSYDGSGRGFFDFWGQGTLVTVSSASTKGPSVFPLAPSSKSTSGGTAALGCLVKDYFPEPVTVSWNSGALTSGVHTFPAVLQSSGLYSLSSVVTVPSSSLGTQTYICNVNHKPSNTKVDKKVEPKSCDKTS”: the “soluble on expression in E. coli” value is reported as “soluble”.

As for “TEKTKAVETTDVALAIDTLVQNGLKALDEMRQLNQEQVDYIVAKASVAALDAHGELALHAVEETGRGVFEDKATKNLFACEHVVNNMRHTKTVGVIEEDDVTGLTLIAEPVGVVCGITPTTNPTSTAIFKSLISLKTRNPIIFAFHPSAQESSAHAARIVRDAAIAAGAPENCVQWIEQPSIDATNALMNHDGIATILATGGNAMVKAAYSCGKPALGVGAGNVPAYVEKSANIRQAAHDIVMSKSFDNGMVCASE”, the “soluble on expression in E. coli” value is “not soluble”.

Consider “MGSDKIHHHHHHMASMFNRVPPLHLLVAFEAAARLGSFARAAEELSVTPSAVSHRIKNLEELWGEDLFVRSNAALRLTAAGTRYLRNVQDALKSLNELARPEYNKMRTRLRVAIPPTFGRQHLVPRLPEFGALYPHIDIELHLAIPFLDVKAEDTDVEIRYGTGRYPDLKTTKLLVEPVFPACGREYYERVNGRAITKPEHLHGLVLLRSPLEPWKPWFETAGLDWPEPQTGPQLNDIGLMLEAVASNQGVALVRQRMARHWLSLGQMVRLLDIESVSPHGYYIVEREQAPLKPEARYFVDWLLSLDW”, for which the “soluble on expression in E. coli” value was “not soluble”.

Consider “MTLIDCCDPQKPSRVLFHFLILDAPSPSNLPTYIKELQHRGVRHLVRVCGPTYDATLVKSRGIDVHSWPFDDGAPPTRAVLDSWLKLLDTELARQQEDPSVPPPTIGVHCVAGLGRAPILVALALVEYGNVSALDAIALIREKRKGAINQTQMHWITKYKR”, for which the “soluble on expression in E. coli” value is “not soluble”.

Regarding “RGSHHHHHHGSAVQVTFTVQKGSDPKKLVLDIKYTRPGDSLAEVELRQHGSEEWEPLTKKGNVWEVKSSKPLVGPFNFRFMSKGGMRNVFDEVIPTAFSIGKTYKPEE”, the “soluble on expression in E. coli” value was “soluble”.

Take “MWNFTLISKVKISREVTMIASKFGIGQQVRHSLLGYLGVVVDIDPVYSLSEPSPDELAVNDELRAAPWYHVVMEDDNGLPVHTYLAEAQLSSELQDEHPEQPSMDELAQTIRKQLQAPRLRNLEHHHHHH”: the “soluble on expression in E. coli” value is “not soluble”.

As to “MNFIIEPGSLADIDELERLYDELNDHLSATINYPGWIKGIYPVRENAAAGVDDNSLFVARCDGRIAGSVILDHQPEKAYENIVWKIDADYSYIFVVRTFVVHPSFLQMGVGHALMDFSLELALKSEMKSIRLDVYEKNLPAISLYEKCGFEYIDTVDLGLGHYGLDWFKLYEKVI”, the “soluble on expression in E. coli” value is “not soluble”.

In the case of “MKFKKYILTGTLALLLSSTGIATIEGNKADASSLDKYLTESQFHDKRIAEELRTLLNKSNVYALAAGSLNPYYKRTIMMNEYRAKAALKKNDFVSMADAKVALEKIYKEIDEIINR”, the “soluble on expression in E. coli” value is on record as “not soluble”.

In the case of “AVKILEIEDLFSSLKHIQHTLVDSQSQEDISLLLQLVQNKDFQNAFKIHNAITVHMNKAS”, the “soluble on expression in E. coli” value was “soluble”.

Take “MTANRQQYQVESVKESNLEEIVQFLIDNFAQTEAILASLKIDDDKICLKELTVMLRDLVQDSLQCSSTCVIRDVTTRQIDGIALACKTSIFDKQIDRLCAYEFREQRVRDAVEFLKYVFNKLDVMYYLNEHRLYKPVFVALVCVRKELWGRGIGTTLMNHVKSAARTDSSDGLISLCSNERGHKLMKTYCPTDFAAVRYDAFKGEHLRPPIVMRPPETFHSVYAMLSKFN”: the “soluble on expression in E. coli” value is “soluble”.

“MLRKGVSFVGQAVQQTLKTQKNLRIQRFSATASQSSEEVNYEIRKDGKRLRGADYEEIVLTSIAGEDKTQIPKGAFDVLLKEYDDLQAESLDFKDKYQRSLAETENVRRRGIKQTDDAKVFAIQSFCKDLLEVSDILDIAVKSVKPEDLESGGKALKDLFEGVSMTRTVMAKTFAKHGLVTVDPTNEKFDPNLHEAVFQIPSANAKQPVGHIEVCTKIGYSLKERPIRPAQVGVVSK”: the “soluble on expression in E. coli” value is “not soluble”.

Turning to “MGHHHHHHSHVAVQTASKQVDGDYVVSEWSEIIEFCTADYSKVHLTQLLEKAEVIAGRMLKFSVFYRNQHKEYFDYVREHHGNAMQPSVKDNSGSHGSPISGKLEGIFFSCSTEFNTGKPPQDSPYGRYRFEIAAEKLFNPNTNLYFGDFYCMYTAYHYVILVIAPVGSPGDEFCKQRLPQLNSKDNKFLTCTEEDGVLVYHHAQDVILEVIYTDPVDLSLGTVAEITGHQLMSLSTANAKKDPSCKTCNISVGR”, the “soluble on expression in E. coli” value is “not soluble”.

Consider “MGSDKIHHHHHHMTALFQQLPSVDKILKTPQGLQLITEFGHTAVVATCRELLTQARQFIKKNNQLPEYFSNFDRTFLEIHSHLQKQNQVQIKAVHNLTGTVLHTNLGRALWSEAAQQAALSAMQKNVSLEYDLDEGKRSHRDNYISELLCKLTGAEAACIVNNNAAAVLLMLATFAQGKEVIISRGELIEIGGAFRIPDIMEQAGCHLVEVGTTNRTHLKDYRNAITENTAFLMKVHSSNYQICGFTSSVSEEELTELGQEMNVPVVTDLGSGALVDLSQYGLPKEPTVQEKIAQGVDLVSFSGDKLLGGVQAGIIVGKKEWIEQLQAHPLKRVLRCDKVILAGLEATLRLYLNPEKLTEKLPTLRLLTQPLKQLKINAMRLKERLESRLNSQFELQIEASQAQIGSGSQPMERIPSVAVTIAEKTNAKLSALSARFKQLSQPIIGRMENGKIWLDLRSLADIETLLNTLDEL”, for which the “soluble on expression in E. coli” value is “not soluble”.

For the sequence “MGHHHHHHSHMINVDPPTGNYPATGGNSTHNITSESDSRLAFKVKSSNNEHYRVRPVYGFVDAKGKSKLDINRLPGPPKEDKIVIQYAEVPAEETDPMAPFKAGAQQGEIIVKLIAA”, the “soluble on expression in E. coli” value was “soluble”.

In the case of “MGSDKIHHHHHHHVETIKNTFLNPKSNKVLVVAHRGNWRSAPENSTAAIDSAIAMKVDIVEIDIQKTKDGQLILMHDNTLDRTTTGKGEIKNWTLADIKKLKLKDKDGKVTNYVVPTLEEALLTAKGKIMVNLDKAYDIFDDVYAILEKTETQNQVIMKGGQPIETVKREFGSYLDKVLYMPVIDLGNKEAEKIITDYLKELRPAAFEIIYSDPKNPLPPKIKQLLFKKSLIWYNTLWGSLAGNHDDNLALTDPEKSYGYLIEQLGARILQTDQPAYLLDYLRKKGWHN”, the “soluble on expression in E. coli” value is recorded as “not soluble”.

Take “MSLSLRLPLAGGGLETFKLSAPRDFPARASGPMNRIAFSAAHVVADPLAASDPWLEAAIDWDHTIAYRQRLWDLGLGVAEAMDTAQRGMGLDWPTSLDLIRRSVEAAKAHGPEALVFSGAGTDHLAPEAARSLDDVIRAYEEQVAAVEKVGGRIILMASRALARIGTSAADYETVYGRILSQVREPVIIHWLGDMFDPALAGYWGTRDLDAAMDTAVAIINAHAAKVDGVKISLLDKDKEIAMRRRLDPAVRMYTGDDFNYAELVAGDAQGYSHALLGIFDAIAPAASAALTALAAGDEAGFHDILAPTVPLSRHIFRAPTRFYKTGVVFMAYLNGHQDHFTMVGGQESARSTLHLAELFRLADRAGLLTDPDLAVQRMRAVLAVRGVEAEGHHHHHH”: the “soluble on expression in E. coli” value is “soluble”.

Consider “MDPQILSPASYGNRAPQKKKKPKKPSAELPSRHSTRSDENSGKIEPGTEHMSSGQRKNLKLLKSDERARVIDARAVLDSAQKHLATLLKNGGKGGDEDIDELIFNREAEIPVEPIRKGKCPFYFDQRILTIVGRVGEVPVQHWFAIYNTSPFPYMFKIKCSDNSLFKIHPVCGVLDALCDAEISVTFVGAHVPPRYTSYLSIHSMLPDPLFLDVPQAFRNRRNFETRQRLYVEYAYHEDPILVTAEEDRDQFHFQYMRKVLKTDEAESFAKKLKAEKVERLDKKIDEIKARKIDEKLIEREIVRAESPKFEPKTRRLRVEKFFNQQKQKKENEWMEKLKVDASRKPMLSHWDLEMKNIKAEKKKIGAVKKKIKAEKKEDKKKPMGWMSTLKMERDERRTKRKEEEEKKKKDAEEKKKKDAEEKKKKDAEDEKKKDAGDEKKKDAEDEKKKDAGDEKKKKDAGEKKKKDAEEKKKVAEEEKKS”, for which the “soluble on expression in E. coli” value was “soluble”.

As to “MHTQYFPNRRPGRIQPLGIQQNTIYVYVKVKHVLEFYAIDIRLPYHWHQIAKLNISEMSYTFSTLSPDFRYIYVLFLRVAREMATFAVQRFDLENNGTADLFLLNAAEELYRVFEVPLDSVTLRCDSGGQLVLYDRSIVQGEIPFWTIRLEESTKTFRILKNSIPTAGDDTERNSALFTIAVDPVNRCFAKLMSPRTMLVYTEERKRWVEYHIPVEQSLQDIFGSDGFPVEEIRGIRETFGTHGHRMGALQTRLTFHDLNDVLVARCLHLHWNTTATVEFDHVNREIQVRLLAKFPLDDEVTRMFYLIASKEHHVFLGVYDTAIVHIKSPKLEEIVGWRMQKMLMRDGHKDEVLQISNYRQLLALALTKYADKDEDLAENLKNLGIEPPRKKLVVMEIELD”, the “soluble on expression in E. coli” value is listed as “not soluble”.

Regarding “MKKKIIIAIVASAITMTHFVGNTYADSKTEVSVTAPYNTNQIAKWLEAHAKPLKTTNPTASLNDLKPLKNMVGSASIVGLGEATHGAHEVFTMKHRIVKYLVSEKGFTNLVLEEGWDRALELDRYVLTGKGNPSQHLTPVFKTKEMLDLLDWIRQYNANPKHKSKVRVIGMDIQSVNENVYNNIIEYIKANNSKLLPRVEEKIKGLIPVTKDMNTFESLTKEEKEKYVLDAKTISALLEENKSYLNGKSKEFAWIKQNARIIEQFTTMLATPPDKPADFYLKHDIAMYENAKWTEEHLGKTIVWGHNGHVSKTNMLSFIYPKVAGQHLAEYYGKRYVSIGTSVYEGQYNVKNSDGEFGPYGTLKSDDPNSYNYIFGQVKKDQFFIDLRKANGVTKTWLNEQHPIFAGITTEGPDIPKTVDISLGKAFDILVQIQKVSPSQVHQLEHHHHHH”, the “soluble on expression in E. coli” value is “soluble”.
